The results in this text go back to PMC5811534, “Neuropathic MORC2 mutations perturb GHKL ATPase dimerization dynamics and epigenetic silencing by multiple structural mechanisms” (Nature Communications, 2018).

A word on the stoichiometry N: it is the number of molecules, sites or subunits per partner or assembly.

Data set [1] deals with the molecule itself. In words: SEC-MALS; SEC-MALS with QELS, Superdex 200 (10/300), 293 K, gel filtration buffer (50 mM HEPES pH 7.5, 150 mM NaCl, 2 mM MgCl2, 0.25 mM TCEP); no nucleotide added; WT at 40 µM, S87L at 7.5 µM; monomer to dimer. For orientation: SEC sorts molecules by how far they enter the pores of the column.
Data set [2] concerns the molecule itself. Nature of the data set: SEC-MALS; SEC-MALS with QELS, Superdex 200 (10/300), 293 K, gel filtration buffer; 2 mM Mg-AMPPNP added to the sample, 30 min on ice before injection; WT at 40 µM, T424R at 7.5 µM; monomer to dimer.

B1: MORC2(1–603) S87L (domain or fragment, human, UniProt Q9Y6X9-1 1-603, looked up)
chain: MAFTNYSSLNRAQLTFEYLHTNSTTHEFLFGALAELVDNARDADATRIDIYAERREDLRGGFMLCFLDDGAGMDPSDAASVIQFGKLAKRTPESTQIGQYGNGLKSGSMRIGKDFILFTKKEDTMTCLFLSRTFHEEEGIDEVIVPLPTWNARTREPVTDNVEKFAIETELIYKYSPFRTEEEVMTQFMKIPGDSGTLVIIFNLKLMDNGEPELDIISNPRDIQMAETSPEGTKPERRSFRAYAAVLYIDPRMRIFIHGHKVQTKRLSCCLYKPRMYKYTSSRFKTRAEQEVKKAEHVARIAEEKAREAESKARTLEVRLGGDLTRDSRVMLRQVQNRAITLRREADVKKRIKEAKQRALKEPKELNFVFGVNIEHRDLDGMFIYNCSRLIKMYEKVGPQLEGGMACGGVVGVVDVPYLVLEPTHNKQDFADAKEYRHLLRAMGEHLAQYWKDIAIAQRGIIKFWDEFGYLSANWNQPPSSELRYKRRRAMEIPTTIQCDLCLKWRTLPFQLSSVEKDYPDTWVCSMNPDPEQDRCEASEQKQKVPLGTFRKDMKTQEEKQKQLTEKIRQQQEKLEALQKTTPIRSQADLKKLPLEVTTRPST
notes: also called S87L variant; source: Sf9 insect cells (baculovirus), purified as for wild type; not shown: tandem StrepII, N-terminal, cleaved
Consider B1, for which the “stoichiometry N” value in data set [1] came out at 2.

B2: MORC2(1–603) T424R (domain or fragment, human, UniProt Q9Y6X9-1 1-603, looked up)
chain: MAFTNYSSLNRAQLTFEYLHTNSTTHEFLFGALAELVDNARDADATRIDIYAERREDLRGGFMLCFLDDGAGMDPSDAASVIQFGKSAKRTPESTQIGQYGNGLKSGSMRIGKDFILFTKKEDTMTCLFLSRTFHEEEGIDEVIVPLPTWNARTREPVTDNVEKFAIETELIYKYSPFRTEEEVMTQFMKIPGDSGTLVIIFNLKLMDNGEPELDIISNPRDIQMAETSPEGTKPERRSFRAYAAVLYIDPRMRIFIHGHKVQTKRLSCCLYKPRMYKYTSSRFKTRAEQEVKKAEHVARIAEEKAREAESKARTLEVRLGGDLTRDSRVMLRQVQNRAITLRREADVKKRIKEAKQRALKEPKELNFVFGVNIEHRDLDGMFIYNCSRLIKMYEKVGPQLEGGMACGGVVGVVDVPYLVLEPRHNKQDFADAKEYRHLLRAMGEHLAQYWKDIAIAQRGIIKFWDEFGYLSANWNQPPSSELRYKRRRAMEIPTTIQCDLCLKWRTLPFQLSSVEKDYPDTWVCSMNPDPEQDRCEASEQKQKVPLGTFRKDMKTQEEKQKQLTEKIRQQQEKLEALQKTTPIRSQADLKKLPLEVTTRPST
notes: also called T424R variant; source: Sf9 insect cells (baculovirus), purified as for wild type; not shown: tandem StrepII, N-terminal, cleaved
For B2, in data set [2], the “stoichiometry N” value turned out to be 2.
